The DeepSol protein solubility set

test: soluble on expression in E. coli; label from the status in PepcDB or PDB records

Soluble on expression in E. coli, not soluble:
MGSDKIHHHHHHACDNSDRIETETQANGVLLNFNASTIDATTTETRSFVPIEGFAKNEYIFGMSVTKDNASRGEIFEGSRNLKATMSRPSGDAPWNWEFSNNASGTVVTPRGPEGKPLRVIAYYPAIAGTENFTDGIPFDFTQTNNPQQKEILYNTNTSYTIPSSGGSDKVTIPLKFQHAYSWISIKVTKSVDKGSHKLSGVSIDNLSGGWIKNKGKINPATGMAMQGAIQGPIGEVRTAEVLDPSGDTATPIIYDFLVPAFMDRNVKDDDLVFTLIIDGKKEIFSLGREHLNNDGDTYGFKQGYVNTYNVEFNNSSLNMRLLNWTSTRIDGDFGQNVTNPTNYQEMSFYYAEDNGGWTTANGKVFPPKYKDLPAGDRRYYNYLTTVKYGGNGEYVPAKPVTDPPPPKGIIIEDDANVATQEPACRLFQMTTKDVSIEPVPWEDEMGQLVAKELCRKYNGGGFKDWRLPRASELRALLVYAIYGAGTKQFINLKLTNDVNREKLYWTGTEESEDKAWAMLYYDDNTLVGRGPNISAQDKSTRLSVRCIRQLQ
MGSDKIHHHHHHMSYQIEIGSIRCFVVAAEELHFRRAAIRLNMSQPTLSQQIKRLEELMGVQLFIRSTRRVDLTRAGASFLDHARDILLKIDEAILNAKLEAGGLSPGGEELIIGAISPATSQLLPLILSRFRQRFPRTRLAIKEVDSIELLRGIERGDFHVGLMRPPSNSNLVRFRHLLSERFVAVMPRQSALARKPALRLSDFAGHGVFALKRFELSCFETVYEQLSGAGLLIENDIAVSDTNTALALVTAGAGITFLPEWVSAMAPDGVVTRVVDDMSVEISMAVGWNPDCPVPGILPFVEFATLAAQNLISARK
MSKSTAEIRQAFLDFFHSKGHQVVASSSLVPHNDPTLLFTNAGMNQFKDVFLGLDKRNYSRATTSQRCVRAGGKHNDLENVGYTARHHTFFEMLGNFSFGDYFKHDAIQFAWELLTSEKWFALPKERLWVTVYESDDEAYEIWEKEVGIPRERIIRIGDNKGAPYASDNFWQMGDTGPCGPCTEIFYDHGDHIWGGPPGSPEEDGDRYIEIWNIVFMQFNRQADGTMEPLPKPSVDTGMGLERIAAVLQHVNSNYDIDLFRTLIQAVAKVTGATDLSNKSLRVIADHIRSCAFLIADGVMPSNENRGYVLRRIIRRAVRHGNMLGAKETFFYKLVGPLIDVMGSAGEDLKRQQAQVEQVLKTEEEQFARTLERGLALLDEELAKLSGDTLDGETAFRLYDTYGFPVDLTADVCRERNIKVDEAGFEAAMEEQRRRAREASGFGADYNAMIRVDSASEFKGYDHLELNGKVTALFVDGKAVDAINAGQEAVVVLDQTPFYAESGGQVGDKGELKGANFSFAVEDTQKYGQAIGHIGKLAAGSLKVGDAVQADIDEARRARIRLNHSATHLMHAALRQVLGTHVSQKGSLVNDKVLRFDFSHNEAMKPEEIRAVEDLVNAQIRRNLPIETNIMNLEAAKAKGAMALFGEKYDERVRVLSMGDFSTELCGGTHASRTGDIGLFRIISESGTAAGVRRIEAVTGEGAITTVHADSDRLSEVAHLLKGDSNNLADKVRSVLERTRQLEKELQQLKEQAAAQESANLSSKAIDVNGVKLLVSELSGVEPKMLRTMVDDLKNQLGSTIIVLATVAEGKVSLIAGVSKDVTDRVKAGELIGMVAQQVGGKGGGRPDMAQAGGTDAAALPAALASVKGWVSAKLQ
MLHILINFINFGKMFTLGNIMKFKKIYIELSDICGLKCDFCPSQKGIRGVMSEEKFQNLAYEISNKAELFTFHLLGDPLLLPNLENYLKIAKDEAMKLEITTSGFYLNSKNQALLLGYENIHQINISLMSFLSQSKISLEQYFKPILELCKKHLEQKSLSFINLRLWNLDANFKAPKSNLKIYEFLAKEFEAKIDANLSKNRLQRHILLHQNKLFKWPNLKDEPLYKKGKCHALKEQIGILSDGSLVPCCLDTKADINLGNVFENNFDKLFRSPRIKMMKKAFEEDKRIEKLCQTCEFFKARLGD
MGSDKIHHHHHHMTSARRQLIDANATPFYHVINRCVRRAFLCGEDKLTGRSYEHRRGWIVDKIKVLSSIFCIDICAYAVMNNHYHLVLKINVEKAKSLSQREIISRWCQITKGHAVATKYMNGDVLIDGEIMLLDALLAEWHERLSSVSWFMRCLNEEIARKANREDECKGAFWEGRFKSQALLDEQALLACMMYVDLNPIRAGVADSLQSSDFTSIQERISLLNLQRDAFTSLKTQVKSVNKLPQIIHQSLAKFDGPTHQSQQTGIPFHFADYLELIDWTGRAIRLDKKGYIDNQRPKLLHELGIASDAWLTSAKEFRRQYSGISGRWDSMCEFKKQHNSGKWCKGKASSQALHP
MSFSADEVRFLAQSEREIAEMTADLDLSKKSMISDVATLRKHFGDFGRAVAELAGARRSAVGKLPQDWLMCQESAQQTTPPAVSAERARRLKTALGENVIVHDVTCSIGTEGHELIDAGLRYLGSDLDFSRTLMAAHNLQGKNALIFRADALQPASRGADVIIADPARRAGGKRITNPAQLLPPLPSLLDAWINQPLAVKCAPGLDFSEWPGLVSIASVDGGVKEACLYTTDLADGETREAIVIKDGLIDRITNFEDDATGQDLAAAPGEFIIDPDGAIVRAGLVRHYAVREQLWMLDERIAYLTGNRIPEGTSGFRFIEEVPLKKLKSAMAAHDAGAVEILVRGVDVDPDQLRKRLQLKGTKAMSVVITRIGSRGVALICGPRERA
MGSDKIHHHHHHMAWIKTVAFGDATGKLRKLYDRVTGPGGNVDNIMMAHSLRPHTMEGHMALYKNVLHHSGNELPKWVLEMIGVWVSSLNGCAYCVEHHFAGLKRLMRDDARAEAIRAAIEARDIKALPVRACEMAAMDYARKLTQAPTEMMAADLEPLRAEGLSDGHILEINQVVAYFAYANRTVLGLGCSTEGDVLGLSPGNSDDPTDWGHA
MDQQEPSNNVDTSSILSDDGMETQEQSSFVTATIDLTVDDYDETEIQEILDNGKAEEGTDEDSDLVEGILNANSDVQALLDAPSEQVAQALNSFFGNESEQEAVAAQRRVDAEKTAKDEAELKQQEEAEDLIIEDSIVKTDEEKQAVRRLKINEFLSWFTRLLPEQFKNFEFTNPNYLTESISDSPVVNVDKCKEIVKSFKESESLEGLSQKYELIDEDVLVAAICIGVLDTNNEEDVDFNVLCDDRIDDWSIEKCVTFLDYPNTGLNSKNGPLRFMQFTVTSPASAILMLTLIRLREEGHPCRLDFDSNPTDDLLLNFDQVEFSNNIIDTAVKYWDDQKENGAQDKIGRRVLIKLTTVLKNAVGSRNEIIQLVNEKIPDFDGTEAAVNESFTSDQRTEIINSRAIMETLKAEMKLAIAEAQKVYDTKTDFEKFFVLTVGDFCLARANPSDDAELTYAIVQDRVDAMTYKVKFIDTSQIRECNIRDLAMTTQGMYDPSLNTFGDVGLRVACRQVISSSQFGKKTIWLTGTAAGRRRAHRSDFLIFFDNGTDAYVSAPTMPGEPGYEVASEKKSVFSLKEMIAKMNAAQIAIMVGQPVGKEGNLDYFLTFHWIRQSHRSAYIRDFMKEFPEWPLLKMPVGMRICLYNSLVDRRKKMVTVIGTDRAFAIVRHEAPNPLAPGNRCTDFPCNDRNHQHIDEKIYRGSHRLEGAAHKKHMISTNNNLSQRRKDQLQSQFEPTDMIRSMPERNHQQVVKKKTTGTNQNVASTNDAKSKREIEIRKKNQFLFNKIIVPIPVLTPLENLKAHAQCGPDCLQKMDADPYEARFHRNSPIHTPLLCGWRRIMYTMSTGKKRGAVKKNIIYFSPCGAALHQISDVSEYIHVTRSLLTIDCFSFDARIDTATYITVDDKYLKVADFSLGTEGIPIPLVNSVDNDEPPSLEYSKRRFQYNDQVDISSVSRDFCSGCSCDGDCSDASKCECQQLSIEAMKRLPHNLQFDGHDELYESSEKQNKFLKLFFFRVPHYQNRLLSSKVISGLYECNDQCSCHRKSCYNRVVQNNIKYPMHVSLFNDDTYQLLFFLQIFKTAQSGWGVRALTDIPQSTFICTYVGAILTDDLADELRNADQYFADLDLKDTVELEKGREDHETDFGYGGDESDYDDEEGSDGDSGDDVMNKMVKRQDSSESGEETKRLTRQKRKQSKKSGKGGSVEKDDTTPRDSMEKDNIESKDEPVFNWDKYFEPFPLYVIDAKQRGNLGRFLNHSCDPNVHVQHVMYDTHDLRLPWVAFFTRKYVKAGDELTWDYQYTQDQTATTQLTCHCGAENCTGRLLKS
MGSDKIHHHHHHMLHFKHSSVINATPEVVWKFHERPDILQLLNPPWQPVQVVRREGGLNVGAITEFRLFLGPLPLTWLARHTECDKYRLFTDEQISGPFESWVHRHEFEPEAGKTRLTDAISFSMPGGETVEFVSGWLVQVQLEAMFRYRHYVTKRECESQ
MASKASGGSTRNGRDSISKRLGVKRYDGQFVKAGNIIVRQRGTRIYPGKNVGMGSDYTLFALKDGYVYFETRRKKKFVSVLSPEEWEKVMAQKNGKVH
RGFAKIRDERARRDKIHNLIKRKLDPTKRFSSKQQRQLDRLTRESNLKPSELKETIREEVVEELAGAADGDDVDAVIDEAAGITTTYEPIEFEDTTVSVEDTSLGLPSHARPMSELEDLTTFEEDIAEEAATNTPADKPAAKH

Soluble on expression in E. coli, soluble:
VQREDGSWLLDGLIAVPELKDTLGLRAVPEEEKGVYHTLSGMIMWLLGRLPQTGDITFWENWRLEVIDMDSKRIDKVLATKIDNQPTEDPKPVA
MRTLLDLDPKGKRVLVRVDYNVPVQDGKVQDETRILESLPTLRHLLAGGASLVLLSHLGRPKGPDPKYSLAPVGEALRAHLPEARFAPFPPGSEEARREAEALRPGEVLLLENVRFEPGEEKNDPELSARYARLGEAFVLDAFGSAHRAHASVVGVARLLPAYAGFLMEKEVRALSRLLKDPERPYAVVLGGAKVSDKIGVIESLLPRIDRLLIGGAMAFTFLKALGGEVGRSLVEEDRLDLAKDLLGRAEALGVRVYLPEDVVAAERIEAGVETRVFPARAIPVPYMGLDIGPKTREAFARALEGARTVFWNGPMGVFEVPPFDEGTLAVGQAIAALEGAFTVVGGGDSVAAVNRLGLKERFGHVSTGGGASLEFLEKGTLPGLEVLEG
MENAKMNSLIAQYPLVKDLVALKETTWFNPGTTSLAEGLPYVGLTEQDVQDAHARLSRFAPYLAKAFPETAATGGIIESELVAIPAMQKRLEKEYQQPISGQLLLKKDSHLPISGSIKARGGIYEVLAHAEKLALEAGLLTLDDDYSKLLSPEFKQFFSQYSIAVGSTGNLGLSIGIMSARIGFKVTVHMSADARAWKKAKLRSHGVTVVEYEQDYGVAVEEGRKAAQSDPNCFFIDDENSRTLFLGYSVAGQRLKAQFAQQGRIVDADNPLFVYLPCGVGGGPGGVAFGLKLAFGDHVHCFFAEPTHSPCMLLGVHTGLHDQISVQDIGIDNLTAADGLAVGRASGFVGRAMERLLDGFYTLSDQTMYDMLGWLAQEEGIRLEPSALAGMAGPQRVCASVSYQQMHGFSAEQLRNTTHLVWATGGGMVPEEEMNQYLAKGR
MASSLNEDPEGSRITYVKGDLFACPKTDSLAHCISEDCRMGAGIAVLFKKKFGGVQELLNQQKKSGEVAVLKRDGRYIYYLITKKRASHKPTYENLQKSLEAMKSHCLKNGVTDLSMPRIGCGLDRLQWENVSAMIEEVFEATDIKITVYTL
MSLEFQLDLIRGEHMEIEKLLEQVNWEKNNGIVPVIVQDEKGEVLTLAYMNKEALRKTLETGIAHYYSRSKGRIRMKGEVSGNIQTVKEIKIDCDNDALLLIVSPKGPACHTGNYSCFYRKLGEPERVLPIDYSLSILKELEEIIKRRKETPVEGSYTSKLFKEGREKIYKKFGEEAIEVLVAEKRERIIYEVADLLYHLLVLLTYNDISLGEVMNELRRRRKEGHHHHHH
GSFTMDDISPSELKTILHSKRANLYYLQHCRVLVNGGRVEYVTDEGRHSHYWNIPIANTTSLLLGTGTSITQAAMRELARAGVLVGFCGGGGTPLFSANEVDVEVSWLTPQSEYRPTEYLQRWVGFWFDEEKRLVAARHFQRARLERIRHSWLEDRVLRDAGFAVDATALAVAVEDSARALEQAPNHEHLLTEEARLSKRLFKLAAQATRYGEFVRAKRGSGGDPANRFLDHGNYLAYGLAATATWVLGIPHGLAVLHGKTRRGGLVFDVADLIKDSLILPQAFLSAMRGDEEQDFRQACLDNLSRAQALDFMIDTLKDVAQRSTVSA
